Data on two compounds can be found in paper PMC12350541, “Continuous Spectrophotometric Assay for Defluorinase and Dechlorinase Activities With α‐Halocarboxylic Acids” (Microbial Biotechnology, 2025).

Series [1] concerns the target T1, rabbit heart lactate dehydrogenase (Oryctolagus cuniculus, UniProt A0A5F9DPL1).
T1 construct: gene LDHB; commercial native enzyme from heart (MilliporeSigma), tetramer
The series is described as follows: NADH oxidation, A340. The series is classed as biochemical. The settings on record: 0.300 mM NADH, 0.1 M Tris pH 9.0.

Another series relates to O=C(O)C(F)Cl. The series is described as follows: LDH-coupled NADH oxidation, A340, 96-well plate, Michaelis-Menten fit. The series is classed as biochemical, Dechloromonas aromatica (nom. nud.). The settings on record: 0.1 M Tris pH 8.0, room temperature not stated for plate, 40 ug DEF2, 50 ug LDH, 400 uM NADH, racemic substrate 1-30 mM.

T1 sequence (A0A5F9DPL1 1-334): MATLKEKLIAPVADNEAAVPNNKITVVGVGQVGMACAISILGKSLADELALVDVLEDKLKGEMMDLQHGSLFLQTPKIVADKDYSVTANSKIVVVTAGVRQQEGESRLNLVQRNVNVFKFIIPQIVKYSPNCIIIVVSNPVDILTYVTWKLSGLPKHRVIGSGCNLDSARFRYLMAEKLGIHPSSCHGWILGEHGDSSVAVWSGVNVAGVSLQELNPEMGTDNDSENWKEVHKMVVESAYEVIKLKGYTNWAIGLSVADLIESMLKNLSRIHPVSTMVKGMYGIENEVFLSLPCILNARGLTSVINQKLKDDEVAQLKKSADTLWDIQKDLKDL

Regarding `O=CC(=O)O` [glyoxylate], the “NADH oxidation, A340” value in series [1] was “activity with commercial rabbit heart lactate dehydrogenase with glyoxylate was too slow”. Consider DEF2 (Dechloromonas aromatica RCB), for which, in the series with O=C(O)C(F)Cl, the Km (in general, the concentration of substrate that gives half-maximal velocity) came out at 6.0 mM; the kcat – broadly, the number of substrate molecules converted per active site and unit of time at saturation – was 0.32 min⁻¹.
